Test results as given in IntAct's records for PubMed 19357306.

B1: Aurora kinase A (Homo sapiens), O14965 (parent)
chain: MDRSKENCISGPVKATAPVGGPKRVLVTQQFPCQNPLPVNSGQAQRVLCPSNSSQRIPLQAQKLVSSHKPVQNQKQKQLQATSVPHPVSRPLNNTQKSKQPLPSAPENNPEEELASKQKNEESKKRQWALEDFEIGRPLGKGKFGNVYLAREKQSKFILALKVLFKAQLEKAGVEHQLRREVEIQSHLRHPNILRLYGYFHDATRVYLILEYAPLGTVYRELQKLSKFDEQRTATYITELANALSYCHSKRVIHRDIKPENLLLGSAGELKIADFGWSVHAPSSRRTTLCGTLDYLPPEMIEGRMHDEKVDLWSLGVLCYEFLVGKPPFEANTYQETYKRISRVEFTFPDFVTEGARDLISRLLKHNPSQRPMLREVLEHPWITANSSKPSNCQNKESASKQS

Variants of: B1
Details: with ince_human INCENP

effect of a mutation on the interaction | Variant
disrupting interaction strength | G198L
disrupting interaction strength | G198A
disrupting interaction strength | G198V

Variants of: B1
Details: with tpx2_human TPX2, Q9ULW0
Sequence of tpx2_human TPX2, Q9ULW0 (Q9ULW0 whole entry): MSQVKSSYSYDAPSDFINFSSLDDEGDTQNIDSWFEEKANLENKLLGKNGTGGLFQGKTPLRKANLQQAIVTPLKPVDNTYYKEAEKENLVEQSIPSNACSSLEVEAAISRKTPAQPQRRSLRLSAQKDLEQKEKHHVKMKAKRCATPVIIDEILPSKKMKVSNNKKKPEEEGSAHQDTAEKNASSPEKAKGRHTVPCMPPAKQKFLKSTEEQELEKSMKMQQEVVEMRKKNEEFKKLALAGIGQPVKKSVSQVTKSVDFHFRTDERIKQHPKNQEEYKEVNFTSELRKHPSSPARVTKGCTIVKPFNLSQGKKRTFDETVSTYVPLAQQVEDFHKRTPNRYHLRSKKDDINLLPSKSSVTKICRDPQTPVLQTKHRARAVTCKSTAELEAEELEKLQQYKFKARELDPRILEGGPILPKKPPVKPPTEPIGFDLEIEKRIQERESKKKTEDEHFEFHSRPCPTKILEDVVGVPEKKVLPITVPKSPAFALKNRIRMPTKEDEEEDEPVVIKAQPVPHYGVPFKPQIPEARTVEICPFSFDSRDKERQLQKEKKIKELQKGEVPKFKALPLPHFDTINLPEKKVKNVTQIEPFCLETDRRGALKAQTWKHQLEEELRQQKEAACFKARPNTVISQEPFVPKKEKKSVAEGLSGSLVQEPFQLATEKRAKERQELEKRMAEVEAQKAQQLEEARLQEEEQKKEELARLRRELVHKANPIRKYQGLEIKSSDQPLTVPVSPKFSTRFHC

effect of a mutation on the interaction | Variant
decreasing interaction | G198N
